Reference: US11396552 (DIABETES FREE, dated 2022)

What was measured:
[1] = target: T1, recombinant CD40 (human, UniProt P25942 21-193, limits assumed); test: ELISA, plates coated with recombinant CD40, AP-conjugated anti-human kappa detection; effective concentration in supernatant read on a PG102 reference curve
T1 construct: the ELISA method itself names no species or construct; also called antigen CD40
Method: Binding of the antibody variants to CD40 was measured using an ELISA based assay based on UKSL-2057. Microtiter plates were coated with recombinant CD40 before the antibody variants were added and detected using an alkaline phosphatase conjugated antihuman kappa IgG.
Samples were then prepared and analyzed The results were converted to effective concentrations in the clarified supernatant […] This assay provides an assessment of the affinity of the antibody variants for CD40.

[2] = target: CD40 on peripheral blood mononuclear cells (PBMC) from healthy donors (human, UniProt P25942 21-277); test: cell-based or functional assay
Sequence of CD40 on peripheral blood mononuclear cells (PBMC) from healthy donors (P25942 21-277): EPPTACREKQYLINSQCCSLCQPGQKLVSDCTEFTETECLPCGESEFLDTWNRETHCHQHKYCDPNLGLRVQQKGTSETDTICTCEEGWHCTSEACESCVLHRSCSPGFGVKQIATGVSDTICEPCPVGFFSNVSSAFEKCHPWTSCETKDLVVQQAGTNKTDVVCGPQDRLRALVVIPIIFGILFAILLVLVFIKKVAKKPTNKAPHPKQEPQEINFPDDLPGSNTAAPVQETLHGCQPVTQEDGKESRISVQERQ

T1 sequence (P25942 21-193 limits assumed): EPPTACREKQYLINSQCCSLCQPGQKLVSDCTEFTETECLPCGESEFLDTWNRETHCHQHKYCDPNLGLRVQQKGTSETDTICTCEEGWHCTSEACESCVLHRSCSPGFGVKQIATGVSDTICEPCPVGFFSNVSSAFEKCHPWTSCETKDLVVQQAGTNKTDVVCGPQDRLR

Binder	CD40 binding [1]	Percentage inhibition of TNF secretion at 1 ng/ml [2]	Percentage inhibition of TNF secretion at 10 ng/ml [2]
PG102 wild-type recombinant antibody (antibody, human IgG4 S228P, kappa, V domains shown, Human IgG4pro(deltaK) heavy, kappa light; also called PG102_Wt; PG102 wt) VH: QVKLQESGPGLVKPSETLSITCTVSGFSLSRYSVYWIRQPPGKGPEWMGMMWGGGSTDYSTSLKSRLTISKDTSKSQVSLKMNSLRTDDTAMYYCVRTDGDYWGQGTTVTVSS VL: ELQLTQSPLSLPVTLGQPASISCRSSQSLANSNGNTYLHWYLQRPGQSPRLLIYKVSNRFSGVPDRFSGSGSGTDFTLKISRVEAEDVGVYYCSQSTHVPWTFGGGTKLEIKR	14.6 mg/L	-5.2%	81.2%
PG102_Var5 (antibody, human IgG4 S228P, kappa, V domains shown, IgG4pro(deltaK)/kappa; also called FFP104_Var5) VH: QVQLQESGPGLVKPSETLSITCTVSGFSLSRYSVYWIRQPPGKGPEWMGMMWGGGSTDYSTSLKSRLTISKDTSKSQVSLKMSSLTAADTAVYYCVRTDGDYWGQGTLVTVSS VL: ELQLTQSPLSLPVTLGQPASISCRSSQSLASSQGNTYLHWYLQRPGQSPRLLIYKVSNRFSGVPDRFSGSGSGTDFTLKISRVEAEDVGVYYCSQSTHVPWTFGGGTKLEIKR	34.9 mg/L	22.5%	87.4%
PG102_Var1 (antibody, human IgG4 S228P, kappa, V domains shown, IgG4pro(deltaK)/kappa; also called FFP104_Var1) VH: QVQLQESGPGLVKPSETLSITCTVSGFSLSRYSVYWIRQPPGKGPEWMGMMWGGGSTDYSTSLKSRLTISKDTSKSQVSLKMSSLTAADTAVYYCVRTDGDYWGQGTLVTVSS VL: ELQLTQSPLSLPVTLGQPASISCRSSQSLASSSGNTYLHWYLQRPGQSPRLLIYKVSNRFSGVPDRFSGSGSGTDFTLKISRVEAEDVGVYYCSQSTHVPWTFGGGTKLEIKR	34.9 mg/L	-0.9%	81.8%
PG102_Var2 (antibody, human IgG4 S228P, kappa, V domains shown, IgG4pro(deltaK)/kappa; also called FFP104_Var2) VH: QVQLQESGPGLVKPSETLSITCTVSGFSLSRYSVYWVRQPPGKGLEWMGMMWGGGSTDYSTSLKSRLTISKDTSKSQVSLKMSSLTAADTAVYYCVRTDGDYWGQGTLVTVSS VL: ELQLTQSPLSLPVTLGQPASISCRSSQSLASSSGNTYLHWYLQRPGQSPRLLIYKVSNRFSGVPDRFSGSGSGTDFTLKISRVEAEDVGVYYCSQSTHVPWTFGGGTKLEIKR	30.1 mg/L	20.2%	87.2%
PG102_Var6 (antibody, human IgG4 S228P, kappa, V domains shown, IgG4pro(deltaK)/kappa; also called FFP104_Var6) VH: QVQLQESGPGLVKPSETLSITCTVSGFSLSRYSVYWVRQPPGKGLEWMGMMWGGGSTDYSTSLKSRLTISKDTSKSQVSLKMSSLTAADTAVYYCVRTDGDYWGQGTLVTVSS VL: ELQLTQSPLSLPVTLGQPASISCRSSQSLASSQGNTYLHWYLQRPGQSPRLLIYKVSNRFSGVPDRFSGSGSGTDFTLKISRVEAEDVGVYYCSQSTHVPWTFGGGTKLEIKR	39.7 mg/L	16.6%	86%
PG102_Var9 (antibody, human IgG4 S228P, kappa, V domains shown, IgG4pro(deltaK)/kappa; also called FFP104_Var9) VH: QVQLQESGPGLVKPSETLSITCTVSGFSLSRYSVYWIRQPPGKGPEWMGMMWGGGSTDYSTSLKSRLTISKDTSKSQVSLKMSSLTAADTAVYYCVRTDGDYWGQGTLVTVSS VL: ELQLTQSPLSLPVTLGQPASISCRSSQSLADSQGNTYLHWYLQRPGQSPRLLIYKVSNRFSGVPDRFSGSGSGTDFTLKISRVEAEDVGVYYCSQSTHVPWTFGGGTKLEIKR	17 mg/L		
PG102_Var10 (antibody, human IgG4 S228P, kappa, V domains shown, IgG4pro(deltaK)/kappa; also called FFP104_Var10) VH: QVQLQESGPGLVKPSETLSITCTVSGFSLSRYSVYWVRQPPGKGLEWMGMMWGGGSTDYSTSLKSRLTISKDTSKSQVSLKMSSLTAADTAVYYCVRTDGDYWGQGTLVTVSS VL: ELQLTQSPLSLPVTLGQPASISCRSSQSLADSQGNTYLHWYLQRPGQSPRLLIYKVSNRFSGVPDRFSGSGSGTDFTLKISRVEAEDVGVYYCSQSTHVPWTFGGGTKLEIKR	4.35 mg/L	14.4%	75.8%
PG102_Var13 (antibody, human IgG4 S228P, kappa, V domains shown, IgG4pro(deltaK)/kappa; also called FFP104_Var13) VH: QVQLQESGPGLVKPSETLSITCTVSGFSLSRYSVYWIRQPPGKGPEWMGMMWGGGSTDYSTSLKSRLTISKDTSKSQVSLKMSSLTAADTAVYYCVRTDGDYWGQGTLVTVSS VL: DIVMTQSPLSLPVTPGQPASISCRSSQSLASSQGNTYLHWYLQKPGQSPRLLIYKVSNRFSGVPDRFSGSGSGTDFTLKISRVEAEDVGVYYCSQSTHVPWTFGGGTKLEIKR	22.8 mg/L		
PG102_Var14 (antibody, human IgG4 S228P, kappa, V domains shown, IgG4pro(deltaK)/kappa; also called FFP104_Var14) VH: QVQLQESGPGLVKPSETLSITCTVSGFSLSRYSVYWVRQPPGKGLEWMGMMWGGGSTDYSTSLKSRLTISKDTSKSQVSLKMSSLTAADTAVYYCVRTDGDYWGQGTLVTVSS VL: DIVMTQSPLSLPVTPGQPASISCRSSQSLASSQGNTYLHWYLQKPGQSPRLLIYKVSNRFSGVPDRFSGSGSGTDFTLKISRVEAEDVGVYYCSQSTHVPWTFGGGTKLEIKR	23 mg/L	21.8%	85.5%
PG102_Var7 (antibody, human IgG4 S228P, kappa, V domains shown, IgG4pro(deltaK)/kappa; also called FFP104_Var7) VH: QVQLQESGPGLVKPSQTLSLTCTVSGFSLSRYSVYWVRQPPGKGLEWIGMMWGGGSTDYNPSLKSRLTISKDTSKSQVSLKLSSLTAADTAVYYCVRTDGDYWGQGTLVTVSS VL: ELQLTQSPLSLPVTLGQPASISCRSSQSLASSQGNTYLHWYLQRPGQSPRLLIYKVSNRFSGVPDRFSGSGSGTDFTLKISRVEAEDVGVYYCSQSTHVPWTFGGGTKLEIKR	33.6 mg/L		
PG102_Var3 (antibody, human IgG4 S228P, kappa, V domains shown, IgG4pro(deltaK)/kappa; also called FFP104_Var3) VH: QVQLQESGPGLVKPSQTLSLTCTVSGFSLSRYSVYWVRQPPGKGLEWIGMMWGGGSTDYNPSLKSRLTISKDTSKSQVSLKLSSLTAADTAVYYCVRTDGDYWGQGTLVTVSS VL: ELQLTQSPLSLPVTLGQPASISCRSSQSLASSSGNTYLHWYLQRPGQSPRLLIYKVSNRFSGVPDRFSGSGSGTDFTLKISRVEAEDVGVYYCSQSTHVPWTFGGGTKLEIKR	38.5 mg/L	16.1%	88.5%
PG102_Var11 (antibody, human IgG4 S228P, kappa, V domains shown, IgG4pro(deltaK)/kappa; also called FFP104_Var11) VH: QVQLQESGPGLVKPSQTLSLTCTVSGFSLSRYSVYWVRQPPGKGLEWIGMMWGGGSTDYNPSLKSRLTISKDTSKSQVSLKLSSLTAADTAVYYCVRTDGDYWGQGTLVTVSS VL: ELQLTQSPLSLPVTLGQPASISCRSSQSLADSQGNTYLHWYLQRPGQSPRLLIYKVSNRFSGVPDRFSGSGSGTDFTLKISRVEAEDVGVYYCSQSTHVPWTFGGGTKLEIKR	12.6 mg/L		
PG102_Var15 (antibody, human IgG4 S228P, kappa, V domains shown, IgG4pro(deltaK)/kappa; also called FFP104_Var15) VH: QVQLQESGPGLVKPSQTLSLTCTVSGFSLSRYSVYWVRQPPGKGLEWIGMMWGGGSTDYNPSLKSRLTISKDTSKSQVSLKLSSLTAADTAVYYCVRTDGDYWGQGTLVTVSS VL: DIVMTQSPLSLPVTPGQPASISCRSSQSLASSQGNTYLHWYLQKPGQSPRLLIYKVSNRFSGVPDRFSGSGSGTDFTLKISRVEAEDVGVYYCSQSTHVPWTFGGGTKLEIKR	29.4 mg/L		
PG102_Var8 (antibody, human IgG4 S228P, kappa, V domains shown, IgG4pro(deltaK)/kappa; also called FFP104_Var8) VH: QVQLVESGGGLVKPGGSLRLSCAVSGFSLSRYSVYWIRQAPGKGLEWMGMMWGGGSTDYSTSVKGRFTISKDNAKTSVYLQMSSLRAEDTAVYYCVRTDGDYWGQGTLVTVSS VL: ELQLTQSPLSLPVTLGQPASISCRSSQSLASSQGNTYLHWYLQRPGQSPRLLIYKVSNRFSGVPDRFSGSGSGTDFTLKISRVEAEDVGVYYCSQSTHVPWTFGGGTKLEIKR	23.5 mg/L		
PG102_Var4 (antibody, human IgG4 S228P, kappa, V domains shown, IgG4pro(deltaK)/kappa; also called FFP104_Var4) VH: QVQLVESGGGLVKPGGSLRLSCAVSGFSLSRYSVYWIRQAPGKGLEWMGMMWGGGSTDYSTSVKGRFTISKDNAKTSVYLQMSSLRAEDTAVYYCVRTDGDYWGQGTLVTVSS VL: ELQLTQSPLSLPVTLGQPASISCRSSQSLASSSGNTYLHWYLQRPGQSPRLLIYKVSNRFSGVPDRFSGSGSGTDFTLKISRVEAEDVGVYYCSQSTHVPWTFGGGTKLEIKR	29.5 mg/L		
PG102_Var12 (antibody, human IgG4 S228P, kappa, V domains shown, IgG4pro(deltaK)/kappa; also called FFP104_Var12) VH: QVQLVESGGGLVKPGGSLRLSCAVSGFSLSRYSVYWIRQAPGKGLEWMGMMWGGGSTDYSTSVKGRFTISKDNAKTSVYLQMSSLRAEDTAVYYCVRTDGDYWGQGTLVTVSS VL: ELQLTQSPLSLPVTLGQPASISCRSSQSLADSQGNTYLHWYLQRPGQSPRLLIYKVSNRFSGVPDRFSGSGSGTDFTLKISRVEAEDVGVYYCSQSTHVPWTFGGGTKLEIKR	2.35 mg/L		
PG102_Var16 (antibody, human IgG4 S228P, kappa, V domains shown, IgG4pro(deltaK)/kappa; also called FFP104_Var16) VH: QVQLVESGGGLVKPGGSLRLSCAVSGFSLSRYSVYWIRQAPGKGLEWMGMMWGGGSTDYSTSVKGRFTISKDNAKTSVYLQMSSLRAEDTAVYYCVRTDGDYWGQGTLVTVSS VL: DIVMTQSPLSLPVTPGQPASISCRSSQSLASSQGNTYLHWYLQKPGQSPRLLIYKVSNRFSGVPDRFSGSGSGTDFTLKISRVEAEDVGVYYCSQSTHVPWTFGGGTKLEIKR	20.7 mg/L		
